Measurements reported in PMC11793155.

How the values were obtained:
[1] = immunofluorescence, confocal microscopy; details: glycan lost; control: untreated cells
[2] = cycloheximide chase 0-12 h, western blot; details: glycan lost; control: CHX alone

B1: ACTRIIB (activin receptor type IIB, ACVR2B): tunicamycin (TM) (protein)
parent chain: MTAPWVALALLWGSLCAGSGRGEAETRECIYYNANWELERTNQSGLERCEGEQDKRLHCYASWRNSSGTIELVKKGCWLDDFNCYDRQECVATEENPQVYFCCCEGNFCNERFTHLPEAGGPEVTYEPPPTAPTLLTVLAYSLLPIGGLSLIVLLAFWMYRHRKPPYGHVDIHEDPGPPPPSPLVGLKPLQLLEIKARGRFGCVWKAQLMNDFVAVKIFPLQDKQSWQSEREIFSTPGMKHENLLQFIAAEKRGSNLEVELWLITAFHDKGSLTDYLKGNIITWNELCHVAETMSRGLSYLHEDVPWCRGEGHKPSIAHRDFKSKNVLLKSDLTAVLADFGLAVRFEPGKPPGDTHGQVGTRRYMAPEVLEGAINFQRDAFLRIDMYAMGLVLWELVSRCKAADGPVDEYMLPFEEEIGQHPSLEELQEVVVHKKMRPTIKDHWLKHPGLAQLCVTIEECWDHDAEARLSAGCVEERVSLIRRSVNGTTSDCLVSLVTSVTNVDLPPKESSI
- localisation_or_trafficking [1]: decreases

B2: ACTRIIB (activin receptor type IIB, ACVR2B): tunicamycin (TM) + CHX (protein)
parent chain: B1 parent chain
- degradation_or_half_life [2]: decreases
